{
  "source": "patent US20190315839A1",
  "assay_in_all_cases": "binding ELISA; OD450 on mutant D2VLP divided by OD450 on original pacD2VLP x100",
  "key": {"[1]": {"molecular_target": "W101G mutant DENV-2 VLP (Dengue virus serotype 2, strain 16681) (UniProt P29990)"}, "[2]": {"molecular_target": "E311R mutant DENV-2 VLP (Dengue virus serotype 2, strain 16681) (UniProt P29990)"}, "[3]": {"molecular_target": "K310E mutant DENV-2 VLP (Dengue virus serotype 2, strain 16681) (UniProt P29990)"}},
  "data": [
    {"substance": "4G2 (antibody)", "values": [
      {"measurement": "Relative binding (%)", "setting": "[1]", "value": 9, "unit": "%"},
      {"measurement": "Relative binding (%)", "setting": "[2]", "value": 99.4, "unit": "%"},
      {"measurement": "Relative binding (%)", "setting": "[3]", "value": 110, "unit": "%"}
    ]}
  ]
}
